The values that follow come from patent publication US20230069418A1 (XIAMEN INNODX BIOTECH, published 2023).

In the test the target is T1, polypeptide S29 (HBcAg-aa141-aa154) (hepatitis B virus).
T1 peptide: STLPETTVVRRRGR
The test can be described thus: indirect ELISA on coated peptide, antibody 1 ug/mL; positive if measured/background > 5. Background: ELISA stands for enzyme-linked immunosorbent assay.

B1: 2A7 monoclonal antibody (antibody, V domains shown)
VH: QVQLQQPGAELVKPGASVKLSCKASGYTFTRYWMHWVMQRPGQDLEWIGEINPINGRTNYNEKFRRKATLTVDKSSSTVYIQFSSLTSEDSAVYFCTREGYRNDYYYAMDFWGRGTSVTVSS
VL: DIQMTQTSSSLSASPGDRVTISCRASQGINNYLNWYKQKTDGTFKLLIYYTSYLHSGVPSRFSGRGSGTDYSLTISNLEPEDVATYYCQQYGKLPWTFGGGTKLEIK
notes: also called HBc-2A7; 2A7-21
B1: the binding result is recorded as “binds”.
